Measurements taken from PMC10178974.

Columns and labels:
Assay in all cases: BLI
[1] = molecular target: SARS-CoV-2 virions (S protein RBD is the stated target of RBD-1C) (SARS-CoV-2) (UniProt P0DTC2); settings: BLI: PBS pH 7.4 ([…]; temperature not stated
[2] = system: Influenza A virus virions (hemagglutinin is the stated target of RHA0385) (Influenza A virus H7N1); settings: BLI: PBS pH 7.4 ([…]; temperature not stated
[3] = system: Respiratory syncytial virus virions (surface protein not named) (Respiratory syncytial virus A2); settings: BLI: PBS pH 7.4 (8 mM Na2HPO4, 1.5 mM KH2PO4, 140 mM NaCl, 10 mM KCl), 0.01% Tween-20, 0.1 mg/mL BSA; biotin-aptamer on streptavidin sensor; virus as analyte …
[4] = system: Adenovirus type 5 virions (surface protein not named) (Human adenovirus 5?); settings: BLI: PBS pH 7.4 (8 mM Na2HPO4, 1.5 mM KH2PO4, 140 mM NaCl, 10 mM KCl), 0.01% Tween-20, 0.1 mg/mL BSA; biotin-aptamer on streptavidin sensor; virus as analyte …

CAGCACCGACCTTGTGCTTTGGGAGTGCTGGTCCAAGGGCGTTAATGGACA [Biotin-RBD-1C]
Kd [1]: 0.071 pM

AGTGCGGTGAGCCGTCGGACATACAAATAC [Biotin-H8]
Kd [2]: 3.5 pM | Kd [3]: 0.031 pM

GTGCCAGCTATGCCATTGGCGGGTCGTCCAATTCGAGAGGTCCCCTAGCGTCTATCTCTGCTGC [Biotin-ADV-20]
Kd [4]: 0.011 pM | Kd [2]: 2.6 pM | Kd [3]: 0.38 pM | Kd [1]: 50 pM

TTGGGGTTATTTTGGGAGGGCGGGGGTT [Biotin-RHA0386 (RHA0385 in text)]
Kd [2]: 0.021 pM
